Substrate in the data set: NC(=O)C[C@H](N)C(=O)O
The data set is described as follows: purified protein. The note with it: 50 mM Tris-HCl, pH 8.6, 37 °C.

B1: ASPase A1 (Bacillus licheniformis) (protein)
chain: MNKKVALITTGGTIASRKTESGRLAAGAISGPELAEMCSLPEDVQIDVYPAFQLPSMHITFEHLLELKQTIERVFQNGGYDGAVVTHGTDTLEETAYFLDLTIEDERPVVVTGSQRAPEQQGTDAYTNIRHAVYTACSPDIKGAGTVVVFNERIFNARYVKKVHASNLQGFDVFGFGYLGIIDNDKVYVYQKPLKRDVHQLQRPLPAVDIVKCYLDGDGKFIRAAVREGVEGIVLEGVGRGQVPPNMMADIEQALNQGVYIVITTSAEEGEVYTTYDYAGSSYDLAKKGVILGKDYDSKKARMKLAVLLASYKEGLKDKFCY
A word on the Km: it is the substrate concentration at which the rate is half of its maximum. A word on the kcat: it is the number of substrate molecules converted per active site and unit of time at saturation. One may read the kcat/Km as the turnover number divided by the Michaelis constant. As to B1, the Km was 10.30 µM, the kcat turned out to be 24 s⁻¹ and the catalytic efficiency (kcat/Km) stood at 2.33e+06 M⁻¹ s⁻¹.

B2: ASPase E (Leunase) (Escherichia coli K-12) (protein)
chain: LPNITILATGGTIAGGGDSATKSNYTVGKVGVENLVNAVPQLKDIANVKGEQVVNIGSQDMNDNVWLTLAKKINTDCDKTDGFVITHGTDTMEETAYFLDLTVKCDKPVVMVGAMRPSTSMSADGPFNLYNAVVTAADKASANRGVLVVMNDTVLDGRDVTKTNTTDVATFKSVNYGPLGYIHNGKIDYQRTPARKHTSDTPFDVSKLNELPKVGIVYNYANASDLPAKALVDAGYDGIVSAGVGNGNLYKSVFDTLATAAKTGTAVVRSSRVPTGATTQDAEVDDAKYGFVASGTLNPQKARVLLQLALTQTKDPQQIQQIFNQY
For the protein B2, the Km was 5.788 µM, the kcat came out at 7.73 s⁻¹ and the kcat/Km amounted to 1.34e+06 M⁻¹ s⁻¹.

These data come from article PMC6378094.
